# Source: the DeepSol protein solubility set
# Assay: soluble on expression in E. coli; label from the status in PepcDB or PDB records
row,Sequence,soluble on expression in E. coli
1,MASSFDNQMDQDGMCSVYSAQPSETNCSINEVLAKEIIAVNETPDDQADSSIYPIPKSETNVSASEGFQPCQDINQFNLSVYSAPKSETPVTMNEKFERCKDLMNVLDYSVYSMPPSEANVTMNVASFSEYTALASETNVTMADVLKNVAQDLASEHTAKSAHPTFDTTAYVERLQAELGIPDSKVIGLECSNFSNAKIIDSIECLHQLDKFQPIPVDFDQNPDFGKTAKSVESYLLRSSNASSIHHEI,not soluble
2,MGSDKIHHHHHHMWFAVLSSNEVRRKPVGVRRLGRDLVFWRDSLGKVYALEDFCVHRRARLSAGKVINDRIQCPFHGFEYDGNGRVRLIPALGKNYKVPDRFRVNSYPVYEKNNIIWLWSGEGEPEKEPKFFDDIDEDFAYAEFRELWNVPFPRAVENQLDVMHLPFVHRTTIGRGNRTLVHGPVVKWIDEDSFIFYVFNEVDRGQRVKRPEELSGEESRVYLEFIFPNLWQNHISEGTRVVAFFVPVDRQKTMIYLRFYVKMTGLKPVDSIIARLSMPLNRIILHQDRRVVETQERDIRKDVLVQGDLPIMEFRKRLYKEKKLIDFLFGGGQ,not soluble
3,MDEFPPIFIISLKDSPRKNIIAERLNALGLSFNFFDAIYGKELSKKQLSEINYDFYIQKFNARKRLTLGEIGCAISHIKLYEYIVKNNINEAIILEDDAIVSIYFKDIICDALKKISCKYEILFLDHGKAKIFPFTRSLVERYRLAKYISPSKKSKRIIIRTTAYIITLNGARKLLNYAYPIRMPSDYLTGTLQLTGINAYGIEPPCVFGGPISEIDQIEDRYCLEHHHHHH,not soluble
4,MSLENGVLKVGLCAAWPPFESRNETTGEIEGFDVDLAKALGEELGVEVEIIDAEWQALLGGLSKGDYDTLITCMSKKEASVENVEMSDVYYELNDVIVVRNDNNEINSVSDLSGKIVGVQLGSGSEQAVDALSGIQEIKRYNYNPEAMIDLQNNRSDAVVVGYTYALSEISKYPDLKVLDTPVASAEIVMVQKEGAEELTAKLNEALSNIKENGKYDEIQDKWLSLEEGHHHHHH,soluble
5,MGSDKIHHHHHHMEILQRQLLFKLAVCQGIGNLGILKVLQEAIAQKRVDFSSTEIIRIAEIKKYRELFEQSWLHHTIHSEALYIRQCQHQFMTILDAVYPKLLREIYNPPAILFYRGNLQLLSRRKIGIVGARYATSYGLRVTEALVPKIVKEGFTIVSGLAKGIDSRSHEMAIQNGGQTIGILGTGLDVYYPYEKKELQQTMKQNQLVLTEYVNGSGPKKYHFPARNRIIAGLSLGVCVMEARKNSGSLITAQAAMDYGREVFAVPGSIFQSFSTGCHELIQDGAKCVQTIDDICEEL,not soluble
6,MGSDKIHHHHHHMENILEIVNLNKSYNGIPALSNINLSVKAGEIHGIVGANGSGKTTLMNILFGNPIIHETGGYQGQIFFKGNRVNFKNCAEAIRQGIGMVHQEFALIPDMTVGENIKLGRENTHSLTDRLFGRKYSFIDWKQDYENAWQTLKRLGISVAVGIKIMDLSVNIRQFIEIAREIDRSDLKLLILDEPTAVLNKNDGLKLIEILKDMSNSEIGIIFISHRLEEVQYVCDKVSVLRDGKLVSQYAKGNIYVNDLAQDMIGHTINKAAAEKREIKNKPLITFKDFSVEMPGEEVKNLNLSVYKGEILGLTSLSGHGKLALGYGMMDMYPVDGEVYYENKKIVKMNARTNIIKGMYVLPDDRQGLGILADQSLESNIVFTGNQIKNMFIRNSAFNFLGFIDHHKTNLHVYKMMLDLDIKCTSIKQKVKELSGGNQQKVCIARALTVDPKLLFVAEPTRGIDISAKEKILNMLIEINRTRNTTIIIASSELDELKRVCDRIAVMVEGKIFKILSPDSPDVDFGLVLSGEEEVDCEKL,not soluble
7,GHHHHHHAIAENLYFQSQQVKQKHKKSDEYRVFVGNLPFSWLEDAVRSVFHSYGTVVDVEVPRKREQPERNRGFAFVYFSSREEALAATTLSGSRLDGRIIKVEWADDGSEHRKVGHEELTQRPTHPLASSQVYEWGGQQVQKQNDSVVSKETPNFMPSGALYKEQRMTRYGKELKFVEPLDARKPEQPWRMYVFKNGKLLEGEEGVFYIHQKSNYLFGRDRDVVDIPIDHPSASKQHAVLQFRQVMPKNGNKLVIKPYIMDLESTNGTFLNNERIESLRYYELLEKDLLRFGHSSREFILLTGHK,soluble
8,SQPVAITDGIYWVGAVDWNIRYFHGPAFSTHRGTTYNAYLIVDDKTALVDTVYEPFKEELIAKLKQIKDPVKLDYLVVNHTESDHAGAFPAIMELCPDAHVLCTQRAFDSLKAHYSHIDFNYTIVKTGTSVSLGKRSLTFIEAPMLHWPDSMFTYVPEEALLLPNDAFGQHIATSVRFDDQVDAGLIMDEAAKYYANILMPFSNLITKKLDEIQKINLAIKTIAPSHGIIWRKDPGRIIEAYARWAEGQGKAKAVIAYDTMWLSTEKMAHALMDGLVAGGCEVKLFKLSVSDRNDVIKEILDARAVLVGSPTINNDILPVVSPLLDDLVGLRPKNKVGLAFGAYGWGGGAQKILEERLKAAKIELIAEPGPTVQWVPRGEDLQRCYELGRKIAARIAD,soluble
9,MRAIYATDLSAASEAAIQNETCLECLGRIGVDTIHLVTVIPSNVHAGMPGMNFSKRREQGLTRYQNVMEDAGFDTETHVVRGTPHRRINGIAEAEKADVTIIGSRGQSPLNNRVIGSTARNLARTTVVPLLVNRIERSTDEPDVLREHLFQRVLYATDFSENATRAFDAFQYLRHATQEATLVHVESPKDATSEADPAEQLASLADTLSQWDIETNVEVRRGDPAEEILDVEAAVTPTTTLVGSRGQSRMRRLLLGSVSEDIIAQATGNVYLVPPPRTA,not soluble
10,MRVKGPSSRRKKKKILKLAKGYRGQRSRSYRRAKEAVMRALYYQYRDRKLRKREFRRLWIARINAAVRAYGLNYSTFINGLKKAGIELDRKILADMAVRDPQAFEQVVNKVKEALQVQ,soluble
11,MIVSAIAANALLESVTKFHCGVIYDYSTAEYVSYRPSDFGAYLDALEAEVARGGLIVFHNGHKYDVPALTKLAKLQLNREFHLPRENCIDTLVLSRLIHSNLKDTDMGLLRSGKLPGKRFGSHALEAWGYRLGEMKGEYKDDFKRMLEEQGEEYVDGMEWWNFNEEMMDYNVQDVVVTKALLEKLLSDKHYFPPEIDFTDVGYTTFWSESLEAVDIEHRAAWLLAKQERNGFPFDTKAIEELYVELAARRSELLRKLTETFGSWYQPKGGTEMFCHPRTGKPLPKYPRIKTPKVGGIFKKPKNKAQREGREPCELDTREYVAGAPYTPVEHVVFNPSSRDHIQKKLQEAGWVPTKYTDKGAPVVDDEVLEGVRVDDPEKQAAIDLIKEYLMIQKRIGQSAEGDKAWLRYVAEDGKIHGSVNPNGAVTGRATHAFPNLAQIPGVRSPYGEQCRAAFGAEHHLDGITGKPWVQAGIDASGLELRCLAHFMARFDNGEYAHEILNGDIHTKNQIAAELPTRDNAKTFIYGFLYGAGDEKIGQIVGAGKERGKELKKKFLENTPAIAALRESIQQTLVESSQWVAGEQQVKWKRRWIKGLDGRKVHVRSPHAALNTLLQSAGALICKLWIIKTEEMLVEKGLKHGWDGDFAYMAWVHDEIQVGCRTEEIAQVVIETAQEAMRWVGDHWNFRCLLDTEGKMGPNWAICH,soluble
12,GMQKLTRINDFNEVLNSRKSVKVFDENYKIPREEMDEIITKATKAPSSVNMQPWRIAVVQSDEMKEKVKESFGFNSRQLTTSSAMLIIFGDLQNYEKAEQIYGDAVEQQLMTEDIKAQLLDWILPYYKNLSREGMKDIVNIDSSLMAMQLMLTAKAHGYDTNPIGGFDKENIADIIGYDSDRYVPVLAIAIGKKAQDAHDSVRLPIDDVREFL,soluble
13,MPVTQEEIIAGIAEIIEEVTGIEPSEITPEKSFVDDLDIDSLSMVEIAVQTEDKYGVKIPDEDLAGLRTVGDVVAYIQKLEEENPEAAQALRAKIESENPDAVANVQARLEAESK,soluble
14,MGSDKIHHHHHHMTKHIHWDGNLSQEGFEIVKGEGGVIVCPTKVGYIIMTSDKKGLERKFEAKKRNRNKPGVVLCGSMEELRALAQLTPEIDAFYQKHWDEDILLGCILPWKAEAYEKLKAYGDGREELMTDIRGTSCFVIKFGVAGEQIAKEMWEKEGRMVYASSANPSGKGNRGKVEGIGERIESMVDLVIEADDYVASIQPDKTIETRYEQGVMVSMVDKDGKLIPQQGADSRSVEPCPVVIRKGLDIDKIMMHLSDQFNSWNYRQGEYY,not soluble
15,MGSDKIHHHHHHMDVIFSIFLETFGDPIGQQPVPPAAVDHYQGKLPNRLLEYWQDHGWCGYGGGLFWLVNPQEYQGVVASWLAGTHFEACDTYHLIARSAFGDLYLWGEKTGSVLTIAAYHSRYLDGAHSSGDEERDNKIHGLLMWLMTECVYFDDLFEPARERLGTLGSDEMYGFVPALMLGGPDSLERLEKLKAVEHLVLLSQLSELEPYELTGEEDE,not soluble
16,MGSDKIHHHHHHMYIEEIKRVLSDQRDVLEEKMSRKLVERDVPNLLKYLEVPNALAILGVRRSGKSTLSLLLLKRKKFAYVNFDDERFYNLNIGDLNKVLQAIYELYGVDVDYIVLDEIHNVKGWELFVSRLRDVKKLIITGSNSKMLSGELATYLTGRHSDYILFPFSFQEYLKYKEVKVEYFSTRVISTLKNELEKYTEVGGFPEALMLGKEQVNVIYNDILFKDIVSRYKIREIEKFREFARTVISYYSNEISLSSIAKILGLNKRTVEKWASGLREAYLTFFIPRYGEKLKQRLTYNKKVYVVDVGIVSNLAIKGKDKGRIIENLVAIKLLRELQGEEKLYYMRNNYEVDFYDEKNSRLIQVTYTSDKIENREIRGLIEGYRLTKAKKLLIITWDLEEKIQVEGVNIEVLPLYRFLLE,not soluble
17,MSPIEKSSKLENVCYDIRGPVLKEAKRLEEEGNKVLKLNIGNPAPFGFDAPDEILVDVIRNLPTAQGYCDSKGLYSARKAIMQHYQARGMRDVTVEDIYIGNGVSELIVQAMQALLNSGDEMLVPAPDYPLWTAAVSLSSGKAVHYLCDESSDWFPDLDDIRAKITPRTRGIVIINPNNPTGAVYSKELLMEIVEIARQHNLIIFADEIYDKILYDDAEHHSIAPLAPDLLTITFNGLSKTYRVAGFRQGWMVLNGPKKHAKGYIEGLEMLASMRLCANVPAQHAIQTALGGYQSISEFITPGGRLYEQRNRAWELINDIPGVSCVKPRGALYMFPKIDAKRFNIHDDQKMVLDFLLQEKVLLVQGTAFNWPWPDHFRIVTLPRVDDIELSLSKFARFLSGYHQL,soluble
18,MKEVIAQNAKLSADDLKEILPKANKLEDFAFEKNEDSTISEVFQAKNGSENEGYIIKVSPKGFNGPIDMVVAIDKNREISGVKVLSQAETPGLGAKVEESSFSEKFKGLTIEDNIKIVKTSPSSQGEIQGITGATISSNAVSSGINDAISFYKENVLGEDLSKEKILNLSKINLEGDLKELTIELEEGIDKVSIVSNGEKEIGYAIEASEVGMYEEKPIKFALGISTGGIITGVQIIDHKETAGLGDLIEDENFLNSFIGVSSLDKLSVKENTNEIDLSVYGEVVNVDSISGATKSSMAIIKGITNVINFYNNNLSLEHHHHHH,soluble
19,MERKISRIHLVSEPSITHFLQVSWEKTLESGFVITLTDGHSAWTGTVSESEISQEADDMEMEKGKYVGELRKALLSGAGPADVYTFNFSKESCYFFFEKNLKDVSFRLGSFNLEKVENPAEVIRELICYCLDTTAENQAKNEHLQKENERLLRDWNDVQGRFEKCVSAKEALETDLYKRFILVLNEKKTKIRSLHNKLLNAAQ,soluble
